How the values were obtained:
Format in all cases: biochemical
[1] = Oxidase activity testing against sclareol; settings: for Average % conversion: substrate Sclareol, Batch 2, UPLC-MS UV or MS peak areas
Protocol: (§1) Lyophilised material of recombinant P450, ferredoxin and ferredoxin reductase proteins was made as described in Example 4 and reconstituted in high purity water to the original volume. Biocatalysis was performed with shaking incubation at 27° C. in the following conditions: 100 mM potassium phosphate pH 8.0, 5 mM MgCl2 (both present in the reconstituted enzyme preparation) and 0.1 mg/ml substrate compound such as ambroxide (Sigma-Aldrich, UK), carbamazepine (Sigma-Aldrich, UK), diclofenac (Sigma-Aldrich, UK), tivantinib (MedChemtronica, Sweden), clarithromycin (Tokyo Chemical Industry, Japan), sclareol (Sigma-Aldrich, UK), celecoxib (LC Laboratories, USA), buparvaquone (Sigma-Aldrich, UK), BIRB796 (MedChemExpress, USA), vanoxerine (CiVentiChem, USA), valsartan (Tokyo Chemical Industry, Japan), ruxolitinib (LC Laboratories, USA), perindopril (Selleckchem, USA), solifenacin (Key Organics, UK), 7-ethoxycoumarin (Tokyo Chemical Industry, Japan), tofacitinib (LC Laboratories, USA), ebastine (Key Organics, UK), efavirenz (Key Organics, UK), propanalol (Sigma-Aldrich, UK) and tolbutamide (Key Organics, UK).
(§2) Concentrations of P450, ferredoxin and ferredoxin reductase were as extracted (Example 4). Reactions were initiated by addition of 10× stock of cofactor mixture (50 mM G6P, 10 mM NADP+, 10 UN/ml G6PDH) to provide a final volume of e.g., 10 μl to 90 μl for 100 μl total reaction volumes. After 16-20 hours, reactions were extracted with an equal volume of acetonitrile, centrifuged to remove precipitated proteins and conversion assessed by UPLC-MS analysis.
(§3) UPLC Data were Obtained as Follows: • Column: Acquity UPLC BEH Shield RP18 1.7 μm 2.1 mm i.d. 50 mm length • Solvents: H2O, B: Acetonitrile, both with 0.1% Formic acid • Flow rate: 1.0 ml/min • Detector: Waters Acquity UPLC PDA (UV-Vis detection) and Waters Acquity UPLC QDA (MS)
(§4) Representative results for the % conversions of various substrates to products by enzymes with mutations at position T109 or L198 and double mutants at T109 and 1129/L198 are shown in Table 4 below.

[2] = Oxidase activity testing against celecoxib; settings: substrate Celecoxib; Batch 2
Protocol: as §1, §2, §3, §4

[3] = Oxidase activity testing against buparvaquone; settings: substrate Buparvaquone; Batch 2
Protocol: as §1, §2, §3, §4

[4] = Oxidase activity testing against BIRB796; settings: substrate BIRB796; Batch 2
Protocol: as §1, §2, §3, §4

[5] = Oxidase activity testing against vanoxerine; settings: for Average % conversion: substrate Vanoxerine, Batch 2
Protocol: as §1, §2, §3, §4

[6] = Oxidase activity testing against valsartan; settings: for Average % conversion: substrate Valsartan, Batch 2
Protocol: as §1, §2, §3, §4

[7] = Oxidase activity testing against ruxolitinib; settings: substrate Ruxolitinib; Batch 2
Protocol: as §1, §2, §3, §4

[8] = Oxidase activity testing against perindopril; settings: substrate Perindopril; Batch 2
Protocol: as §1, §2, §3, §4

[9] = Oxidase activity testing against solifenacin; settings: substrate Solifenacin; Batch 2
Protocol: as §1, §2, §3, §4

[10] = Oxidase activity testing against 7-ethoxycoumarin; settings: substrate 7-ethoxycoumarin; Batch 2
Protocol: as §1, §2, §3, §4

[11] = Oxidase activity testing against tofacitinib; settings: substrate Tofacitinib; Batch 2
Protocol: as §1, §2, §3, §4

[12] = Oxidase activity testing against ebastine; settings: substrate Ebastine; Batch 2
Protocol: as §1, §2, §3, §4

[13] = Oxidase activity testing against efavirenz; settings: for Average % conversion: substrate Efavirenz, Batch 2
Protocol: as §1, §2, §3, §4

[14] = Oxidase activity testing against clarithromycin; settings: for new product at 3.12 minutes (3″-O-demethylclarithromycin) from clarithromycin: chromatographic analysis, FIGS. 5 and 6; for Average % conversion: substrate Clarithromycin, Batch 2
Protocol: as §1, §2, §3, §4

[15] = Oxidase activity testing against propanalol; settings: for Average % conversion: substrate Propanalol, Batch 2
Protocol: as §1, §2, §3, §4

[16] = Oxidase activity testing against tolbutamide; settings: substrate Tolbutamide; Batch 2
Protocol: as §1, §2, §3, §4

Row | Molecule | Average % conversion [1] [%] | Average % conversion [2] [%] | Average % conversion [3] [%] | Average % conversion [4] [%] | Average % conversion [5] [%] | Average % conversion [6] [%] | Average % conversion [7] [%] | Average % conversion [8] [%] | Average % conversion [9] [%] | Average % conversion [10] [%] | Average % conversion [11] [%] | Average % conversion [12] [%] | Average % conversion [13] [%] | new product at 3.12 minutes (3″-O-demethylclarithromycin) from clarithromycin [14] | Average % conversion [14] [%] | Average % conversion [15] [%] | Average % conversion [16] [%] | other results
1 | M32: P450SeuC10 with T109F and I259L double mutations, SEQ ID NO: 130 (protein, SeuC10M32) MKIGTTHLTRLRGLSMTELTDITGPAAQAETVAFPQDRTCPYHPPTGYDPLRDGRPLSRVTLYDGREVWLVTAQATARALLADPRLSTDRRRDGFPVPTPRFAAGRDRFLALLGLDDPEHHRQRRLLIPSFTLKRATAQRPWIQRIVDELLDAMIARGPVADLVSAFALPVPSMVICELLGVPYADHEFFEEQSRRLLRGPTGADTTDARDRLEAYLGDLIDAKAKEAEPGDGILDDLVHNRLRAGELDRSVLVSLAVLLLVAGHETTANMISLGTYTLLQHPERLAELRADPSLLPAVVEELLRMLSIAEGLQRLALEDIEIDGITIRAGEGVLFSTSVINRDTAVYEDPDDLDFHRADRHHVAFGFGIHQCLGQNLARAELEIALGSLFTRLPGLRLAAPAEEIPFKPGDTVQGMLELPVTW | 84.5 | 35.6 | 31.5 | 90.6 | 88.8 | 66.8 | 99.2 | 45.6 | 25.9 | 20.2 | 40.8 | 10.4 | 1.2 | production of a new product | 23.3 | 1.6 | 56.1 | conversion of sclareol compared to wild-type (in words) [1]: significantly increased conversion; product at 1.42 minutes from sclareol ([1]; FIG. 7): increased production; product at 1.55 minutes from sclareol ([1]; FIG. 7): generated a new product; conversion of vanoxerine compared to wild-type (in words) [5]: significantly increased conversion; conversion of valsartan compared to wild-type (in words) [6]: significantly increased conversion; conversion of efavirenz, not converted by wild-type (in words) [13]: achieved conversion; conversion of clarithromycin, not converted by wild-type (in words) [14]: achieved conversion; conversion of propanalol, not converted by wild-type (in words) [15]: achieved conversion
2 | M15: P450SeuC10 with L198T mutation, SEQ ID NO: 34 (protein, SeuC10M15) MKIGTTHLTRLRGLSMTELTDITGPAAQAETVAFPQDRTCPYHPPTGYDPLRDGRPLSRVTLYDGREVWLVTAQATARALLADPRLSTDRRRDGFPVPTPRFAAGRDRTLALLGLDDPEHHRQRRLLIPSFTLKRATAQRPWIQRIVDELLDAMIARGPVADLVSAFALPVPSMVICELLGVPYADHEFFEEQSRRLTRGPTGADTTDARDRLEAYLGDLIDAKAKEAEPGDGILDDLVHNRLRAGELDRSVLVSLAVILLVAGHETTANMISLGTYTLLQHPERLAELRADPSLLPAVVEELLRMLSIAEGLQRLALEDIEIDGITIRAGEGVLFSTSVINRDTAVYEDPDDLDFHRADRHHVAFGFGIHQCLGQNLARAELEIALGSLFTRLPGLRLAAPAEEIPFKPGDTVQGMLELPVTW | 61 | 7.2 | 0 | 34.4 | 41 | 20.9 | 100 | 35.4 | 6 | 14.7 | 32.3 | 0.5 | 4.3 | not observed | 0 | 0 | 28.3 | –
